From the supplement of paper PMC10065799, “High-throughput profiling of sequence recognition by tyrosine kinases and SH2 domains using bacterial peptide display” (eLife, 2023)
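Wherever SH2 binding enrichment of the phosphorylated peptide, bacterial display is given: peptide library displayed on the E. coli surface as eCPX fusions, selected cells deep-sequenced, score is each peptide's frequency after selection divided by its frequency in the input.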
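Wherever phosphorylation enrichment, bacterial display is given: 11-residue human phosphosite peptides and single-mutation variants displayed on the E. coli surface, counted by deep sequencing, each peptide's frequency after selection divided by its frequency in the unselected input library; frequency after pTyr selection over input frequency; kinase dosed for 20-30% of maximal phosphorylation in three min.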

Each sequence was assayed against SHP2-C SH2 (assay: SH2 binding enrichment of the phosphorylated peptide, bacterial display (enrichment ratio); higher = better substrate or ligand; peptides without Tyr show the background).
For QITQVYGFYHE [PPP2CA_Y127_D131H], the SH2 binding enrichment was 1.04. With LPKVSCVKAID [GLRA1_Y307_Y307C] the SH2 binding enrichment was 0.35. In the case of SNKLTYGTVVF [ACOX1_Y275_M278V], the SH2 binding enrichment is reported as 4.29. With EALDFYGELRT [PTEN_Y155_V158L] the SH2 binding enrichment was 0.731. Work on WRGMPYGGRGD [TGM1_Y312_R307W] yielded an SH2 binding enrichment of 0.739. ALEKTYNTFRS [B4GALNT2_Y538_YF] showed an SH2 binding enrichment of 0.591. In the case of GFSRHCEDGFP [CTNND1_Y217_Y217C_YF], the SH2 binding enrichment is reported as 0.663. In the case of DFDHSYFFIAT [ESD_Y262_G257D_YF], the SH2 binding enrichment is reported as 0.568. Sequence FLAVGYHKPRI [IDS_Y225_H229R] has an SH2 binding enrichment of 1.6. With YGMSTYITRED [FNDC3B_Y180] the SH2 binding enrichment was 0.576. RGVAHYILQTF [SLC39A4_Y359_T357A] showed an SH2 binding enrichment of 1.71. In the case of MNKNAYHNVTT [ST3GAL6_Y306_A311T], the SH2 binding enrichment is reported as 0.706. Sequence TNLVPYTRIHF [TUBA1A_Y262_P263T] has an SH2 binding enrichment of 40.4. FTNELYMMMRD [FGFR1_Y730_C725Y_YF] showed an SH2 binding enrichment of 0.661. For QGIIIYKAAYF [SLC25A4_Y187_R188K], the SH2 binding enrichment was 0.942. For GTFEDYVEGLR [MYL6_Y89_YF], the SH2 binding enrichment was 0.553. For FRQLPYCPSVE [CTNND2_Y508_Q507P_YF], the SH2 binding enrichment was 0.472. With HLVLNYGVCFC [JAK2_Y613_V617F] the SH2 binding enrichment was 1.15. Work on IEELTYVIKQD [STX5_Y137_I138V] yielded an SH2 binding enrichment of 0.602. IEDNEYTAREG [HCK_Y411] was tested, and the SH2 binding enrichment was 0.666. With EYRFIYMAVQH [PTPN11_Y515_Q510E] the SH2 binding enrichment was 0.765. SDTGQYQCLVF [AXL_Y115] gave an SH2 binding enrichment of 0.563. ALVLQYLRVPL [F9_Y371] showed an SH2 binding enrichment of 1.74. For RSGIFYKPESL [L2HGDH_Y103_H98R_YF], the SH2 binding enrichment was 0.894. With EEALHYLTRVE [SET_Y119] the SH2 binding enrichment was 1.16. With DKATEYSQFMR [MAX_Y70_I71S_YF] the SH2 binding enrichment was 0.688. Sequence SHNKFYMLVAH [MFSD8_Y134_R139H_YF] has an SH2 binding enrichment of 1.28. LSDGPYSSPYE [EPOR_Y485_N487S] was tested, and the SH2 binding enrichment was 0.762. RDLRTYIMPAH [PNMT_Y256] was tested, and the SH2 binding enrichment was 0.734. For KINKMYSDHAM, the SH2 binding enrichment was 0.602. With VCHELYNTIRD [PBRM1_Y54] the SH2 binding enrichment was 0.805. Work on TLSGTYQFIIA [FOXL2_Y81_I80T_YF] yielded an SH2 binding enrichment of 1.13. In the case of ETLLYYGYRRS [POR_Y564_C566Y], the SH2 binding enrichment is reported as 1.

The sequences below were run against Grb2 SH2 (UniProt P62993) in the same assay as above.
Sequence of Grb2 SH2 (P62993 whole entry, looked up): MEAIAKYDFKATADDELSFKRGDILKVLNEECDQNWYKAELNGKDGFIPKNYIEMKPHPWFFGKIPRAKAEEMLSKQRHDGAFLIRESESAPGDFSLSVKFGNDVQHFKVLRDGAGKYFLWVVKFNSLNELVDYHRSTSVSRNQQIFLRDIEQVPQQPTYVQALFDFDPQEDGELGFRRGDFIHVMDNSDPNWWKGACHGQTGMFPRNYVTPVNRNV
Work on QITQVYGFYHE [PPP2CA_Y127_D131H] yielded an SH2 binding enrichment of 1.04. For LPKVSCVKAID [GLRA1_Y307_Y307C], the SH2 binding enrichment was 0.713. Work on SNKLTYGTVVF [ACOX1_Y275_M278V] yielded an SH2 binding enrichment of 0.92. Work on EALDFYGELRT [PTEN_Y155_V158L] yielded an SH2 binding enrichment of 0.775. WRGMPYGGRGD [TGM1_Y312_R307W] showed an SH2 binding enrichment of 1.19. Work on ALEKTYNTFRS [B4GALNT2_Y538_YF] yielded an SH2 binding enrichment of 0.872. For GFSRHCEDGFP [CTNND1_Y217_Y217C_YF], the SH2 binding enrichment was 0.774. Sequence DFDHSYFFIAT [ESD_Y262_G257D_YF] has an SH2 binding enrichment of 0.828. Work on FLAVGYHKPRI [IDS_Y225_H229R] yielded an SH2 binding enrichment of 1.61. YGMSTYITRED [FNDC3B_Y180] was tested, and the SH2 binding enrichment was 0.608. RGVAHYILQTF [SLC39A4_Y359_T357A] showed an SH2 binding enrichment of 1.73. Sequence MNKNAYHNVTT [ST3GAL6_Y306_A311T] has an SH2 binding enrichment of 4.43. TNLVPYTRIHF [TUBA1A_Y262_P263T] gave an SH2 binding enrichment of 1.05. Work on FTNELYMMMRD [FGFR1_Y730_C725Y_YF] yielded an SH2 binding enrichment of 0.844. In the case of QGIIIYKAAYF [SLC25A4_Y187_R188K], the SH2 binding enrichment is reported as 0.708. GTFEDYVEGLR [MYL6_Y89_YF] was tested, and the SH2 binding enrichment was 0.9. In the case of FRQLPYCPSVE [CTNND2_Y508_Q507P_YF], the SH2 binding enrichment is reported as 0.722. HLVLNYGVCFC [JAK2_Y613_V617F] showed an SH2 binding enrichment of 0.884. Work on IEELTYVIKQD [STX5_Y137_I138V] yielded an SH2 binding enrichment of 0.654. With IEDNEYTAREG [HCK_Y411] the SH2 binding enrichment was 0.803. For EYRFIYMAVQH [PTPN11_Y515_Q510E], the SH2 binding enrichment was 0.831. SDTGQYQCLVF [AXL_Y115] gave an SH2 binding enrichment of 0.582. With ALVLQYLRVPL [F9_Y371] the SH2 binding enrichment was 1.8. In the case of RSGIFYKPESL [L2HGDH_Y103_H98R_YF], the SH2 binding enrichment is reported as 0.913. EEALHYLTRVE [SET_Y119] gave an SH2 binding enrichment of 0.758. Sequence DKATEYSQFMR [MAX_Y70_I71S_YF] has an SH2 binding enrichment of 0.824. SHNKFYMLVAH [MFSD8_Y134_R139H_YF] was tested, and the SH2 binding enrichment was 1.25. LSDGPYSSPYE [EPOR_Y485_N487S] was tested, and the SH2 binding enrichment was 0.808. Sequence RDLRTYIMPAH [PNMT_Y256] has an SH2 binding enrichment of 0.965. In the case of KINKMYSDHAM, the SH2 binding enrichment is reported as 0.705. Work on VCHELYNTIRD [PBRM1_Y54] yielded an SH2 binding enrichment of 0.766. For TLSGTYQFIIA [FOXL2_Y81_I80T_YF], the SH2 binding enrichment was 0.968. ETLLYYGYRRS [POR_Y564_C566Y] was tested, and the SH2 binding enrichment was 0.756.

What follows are sequences tested against c-Src SH2 in the same assay as above.
QITQVYGFYHE [PPP2CA_Y127_D131H] gave an SH2 binding enrichment of 1.05. For LPKVSCVKAID [GLRA1_Y307_Y307C], the SH2 binding enrichment was 0.697. SNKLTYGTVVF [ACOX1_Y275_M278V] was tested, and the SH2 binding enrichment was 0.597. EALDFYGELRT [PTEN_Y155_V158L] was tested, and the SH2 binding enrichment was 0.503. WRGMPYGGRGD [TGM1_Y312_R307W] showed an SH2 binding enrichment of 0.709. Work on ALEKTYNTFRS [B4GALNT2_Y538_YF] yielded an SH2 binding enrichment of 0.457. With GFSRHCEDGFP [CTNND1_Y217_Y217C_YF] the SH2 binding enrichment was 0.479. DFDHSYFFIAT [ESD_Y262_G257D_YF] was tested, and the SH2 binding enrichment was 0.455. FLAVGYHKPRI [IDS_Y225_H229R] was tested, and the SH2 binding enrichment was 1.64. YGMSTYITRED [FNDC3B_Y180] was tested, and the SH2 binding enrichment was 0.464. RGVAHYILQTF [SLC39A4_Y359_T357A] gave an SH2 binding enrichment of 1.16. MNKNAYHNVTT [ST3GAL6_Y306_A311T] gave an SH2 binding enrichment of 2.21. Sequence TNLVPYTRIHF [TUBA1A_Y262_P263T] has an SH2 binding enrichment of 2.64. With FTNELYMMMRD [FGFR1_Y730_C725Y_YF] the SH2 binding enrichment was 0.604. In the case of QGIIIYKAAYF [SLC25A4_Y187_R188K], the SH2 binding enrichment is reported as 0.391. In the case of GTFEDYVEGLR [MYL6_Y89_YF], the SH2 binding enrichment is reported as 0.5. FRQLPYCPSVE [CTNND2_Y508_Q507P_YF] gave an SH2 binding enrichment of 0.458. With HLVLNYGVCFC [JAK2_Y613_V617F] the SH2 binding enrichment was 0.757. Sequence IEELTYVIKQD [STX5_Y137_I138V] has an SH2 binding enrichment of 0.354. IEDNEYTAREG [HCK_Y411] showed an SH2 binding enrichment of 0.539. EYRFIYMAVQH [PTPN11_Y515_Q510E] gave an SH2 binding enrichment of 0.556. In the case of SDTGQYQCLVF [AXL_Y115], the SH2 binding enrichment is reported as 0.449. ALVLQYLRVPL [F9_Y371] gave an SH2 binding enrichment of 1.66. For RSGIFYKPESL [L2HGDH_Y103_H98R_YF], the SH2 binding enrichment was 0.572. EEALHYLTRVE [SET_Y119] was tested, and the SH2 binding enrichment was 0.532. Work on DKATEYSQFMR [MAX_Y70_I71S_YF] yielded an SH2 binding enrichment of 0.512. With SHNKFYMLVAH [MFSD8_Y134_R139H_YF] the SH2 binding enrichment was 0.978. Work on LSDGPYSSPYE [EPOR_Y485_N487S] yielded an SH2 binding enrichment of 3.98. Work on RDLRTYIMPAH [PNMT_Y256] yielded an SH2 binding enrichment of 0.777. KINKMYSDHAM showed an SH2 binding enrichment of 0.354. With VCHELYNTIRD [PBRM1_Y54] the SH2 binding enrichment was 3.75. Sequence TLSGTYQFIIA [FOXL2_Y81_I80T_YF] has an SH2 binding enrichment of 1.11. ETLLYYGYRRS [POR_Y564_C566Y] was tested, and the SH2 binding enrichment was 0.474.

What follows are sequences tested against EPHB2 (UniProt P29323) (assay: phosphorylation enrichment, bacterial display (enrichment ratio); higher = better substrate or ligand; peptides without Tyr show the background).
Sequence of EPHB2 (P29323 whole entry, looked up): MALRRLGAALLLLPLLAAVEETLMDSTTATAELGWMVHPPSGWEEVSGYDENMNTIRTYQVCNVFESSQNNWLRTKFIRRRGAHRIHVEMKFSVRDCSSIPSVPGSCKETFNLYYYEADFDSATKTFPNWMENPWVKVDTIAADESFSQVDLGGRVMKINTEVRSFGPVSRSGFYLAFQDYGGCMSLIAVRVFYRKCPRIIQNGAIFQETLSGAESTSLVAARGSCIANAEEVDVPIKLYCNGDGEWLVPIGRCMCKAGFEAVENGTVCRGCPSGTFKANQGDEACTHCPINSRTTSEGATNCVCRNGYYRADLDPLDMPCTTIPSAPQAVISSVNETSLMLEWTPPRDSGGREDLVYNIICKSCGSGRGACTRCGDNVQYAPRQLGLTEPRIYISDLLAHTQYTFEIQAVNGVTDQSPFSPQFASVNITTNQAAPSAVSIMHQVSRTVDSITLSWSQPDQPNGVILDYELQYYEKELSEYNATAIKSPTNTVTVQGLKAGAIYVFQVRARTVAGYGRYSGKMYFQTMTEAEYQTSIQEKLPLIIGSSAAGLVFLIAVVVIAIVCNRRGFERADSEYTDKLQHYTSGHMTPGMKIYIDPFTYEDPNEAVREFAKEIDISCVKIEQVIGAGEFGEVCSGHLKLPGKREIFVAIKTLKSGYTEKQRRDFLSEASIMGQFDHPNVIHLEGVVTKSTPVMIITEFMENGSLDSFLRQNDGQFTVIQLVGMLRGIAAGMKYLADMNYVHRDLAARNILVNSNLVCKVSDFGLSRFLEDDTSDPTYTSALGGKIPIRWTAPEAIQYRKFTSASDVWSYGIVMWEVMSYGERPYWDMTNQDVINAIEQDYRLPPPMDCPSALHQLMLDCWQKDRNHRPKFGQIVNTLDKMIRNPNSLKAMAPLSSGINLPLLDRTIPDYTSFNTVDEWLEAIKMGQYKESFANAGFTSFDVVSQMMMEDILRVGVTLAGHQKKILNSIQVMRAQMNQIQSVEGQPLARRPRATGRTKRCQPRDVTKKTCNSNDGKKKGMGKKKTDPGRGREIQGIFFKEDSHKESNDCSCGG
With QITQVYGFYHE [PPP2CA_Y127_D131H] the phosphorylation enrichment was 0.877. Work on LPKVSCVKAID [GLRA1_Y307_Y307C] yielded a phosphorylation enrichment of 0.711. With SNKLTYGTVVF [ACOX1_Y275_M278V] the phosphorylation enrichment was 0.725. EALDFYGELRT [PTEN_Y155_V158L] was tested, and the phosphorylation enrichment was 0.764. In the case of WRGMPYGGRGD [TGM1_Y312_R307W], the phosphorylation enrichment is reported as 0.401. With ALEKTYNTFRS [B4GALNT2_Y538_YF] the phosphorylation enrichment was 0.406. With GFSRHCEDGFP [CTNND1_Y217_Y217C_YF] the phosphorylation enrichment was 0.555. With DFDHSYFFIAT [ESD_Y262_G257D_YF] the phosphorylation enrichment was 0.606. Sequence FLAVGYHKPRI [IDS_Y225_H229R] has a phosphorylation enrichment of 0.44. YGMSTYITRED [FNDC3B_Y180] gave a phosphorylation enrichment of 0.584. Work on RGVAHYILQTF [SLC39A4_Y359_T357A] yielded a phosphorylation enrichment of 0.724. MNKNAYHNVTT [ST3GAL6_Y306_A311T] showed a phosphorylation enrichment of 0.352. For TNLVPYTRIHF [TUBA1A_Y262_P263T], the phosphorylation enrichment was 0.423. In the case of FTNELYMMMRD [FGFR1_Y730_C725Y_YF], the phosphorylation enrichment is reported as 1.69. QGIIIYKAAYF [SLC25A4_Y187_R188K] was tested, and the phosphorylation enrichment was 1.04. With GTFEDYVEGLR [MYL6_Y89_YF] the phosphorylation enrichment was 0.534. FRQLPYCPSVE [CTNND2_Y508_Q507P_YF] showed a phosphorylation enrichment of 0.748. HLVLNYGVCFC [JAK2_Y613_V617F] was tested, and the phosphorylation enrichment was 2.33. In the case of IEELTYVIKQD [STX5_Y137_I138V], the phosphorylation enrichment is reported as 0.659. IEDNEYTAREG [HCK_Y411] showed a phosphorylation enrichment of 0.491. In the case of EYRFIYMAVQH [PTPN11_Y515_Q510E], the phosphorylation enrichment is reported as 1.02. SDTGQYQCLVF [AXL_Y115] showed a phosphorylation enrichment of 0.9. ALVLQYLRVPL [F9_Y371] was tested, and the phosphorylation enrichment was 0.5. Work on RSGIFYKPESL [L2HGDH_Y103_H98R_YF] yielded a phosphorylation enrichment of 0.567. With EEALHYLTRVE [SET_Y119] the phosphorylation enrichment was 0.536. DKATEYSQFMR [MAX_Y70_I71S_YF] gave a phosphorylation enrichment of 0.541. SHNKFYMLVAH [MFSD8_Y134_R139H_YF] showed a phosphorylation enrichment of 0.668. With LSDGPYSSPYE [EPOR_Y485_N487S] the phosphorylation enrichment was 0.95. RDLRTYIMPAH [PNMT_Y256] was tested, and the phosphorylation enrichment was 0.815. With KINKMYSDHAM the phosphorylation enrichment was 0.285. Work on VCHELYNTIRD [PBRM1_Y54] yielded a phosphorylation enrichment of 0.608. For TLSGTYQFIIA [FOXL2_Y81_I80T_YF], the phosphorylation enrichment was 0.924. ETLLYYGYRRS [POR_Y564_C566Y] gave a phosphorylation enrichment of 1.06.
